Earlier results in US20170173060A1, “ACTIVATION OF THE ENDOGENOUS ILEAL BRAKE HORMONE PATHWAY FOR ORGAN REGENERATION AND RELATED COMPOSITIONS, METHODS OF TREATMENT, DIAGNOSTICS, AND REGULATORY SYSTEMS” (VOLANT HOLDINGS GMBH, priority 2014, published 2017).

Key:
MIN-6 cells = conditions: immunoprecipitation and western blotting
[1] = tested on: severely streptozotocin-diabetic rats; conditions: rat, in vivo

B1: Betacellulin (protein, UniProt P35070 32-111, looked up)
Betacellulin: DGNSTRSPETNGLLCGDPEENCAATTTQSKRKGHFSRCPKQYKHYCIKGRCRFVVAEQTPSCVCDEGYIGARCERVDLFY
modifications: Betacellulin
notes: member of the epidermal growth factor family
- phosphorylation of EGF receptors (ErbBs) (MIN-6 cells): induced phosphorylation of only ErbB-1 and ErbB-2

B2: EGF (protein, UniProt P01133 23-1207, looked up)
Pro-epidermal growth factor: PQHWSCPEGTLAGNGNSTCVGPAPFLIFSHGNSIFRIDTEGTNYEQLVVDAGVSVIMDFHYNEKRIYWVDLERQLLQRVFLNGSRQERVCNIEKNVSGMAINWINEEVIWSNQQEGIITVTDMKGNNSHILLSALKYPANVAVDPVERFIFWSSEVAGSLYRADLDGVGVKALLETSEKITAVSLDVLDKRLFWIQYNREGSNSLICSCDYDGGSVHISKHPTQHNLFAMSLFGDRIFYSTWKMKTIWIANKHTGKDMVRINLHSSFVPLGELKVVHPLAQPKAEDDTWEPEQKLCKLRKGNCSSTVCGQDLQSHLCMCAEGYALSRDRKYCEDVNECAFWNHGCTLGCKNTPGSYYCTCPVGFVLLPDGKRCHQLVSCPRNVSECSHDCVLTSEGPLCFCPEGSVLERDGKTCSGCSSPDNGGCSQLCVPLSPVSWECDCFPGYDLQLDEKSCAASGPQPFLLFANSQDIRHMHFDGTDYGTLLSQQMGMVYALDHDPVENKIYFAHTALKWIERANMDGSQRERLIEEGVDVPEGLAVDWIGRRFYWTDRGKSLIGRSDLNGKRSKIITKENISQPRGIAVHPMAKRLFWTDTGINPRIESSSLQGLGRLVIASSDLIWPSGITIDFLTDKLYWCDAKQSVIEMANLDGSKRRRLTQNDVGHPFAVAVFEDYVWFSDWAMPSVMRVNKRTGKDRVRLQGSMLKPSSLVVVHPLAKPGADPCLYQNGGCEHICKKRLGTAWCSCREGFMKASDGKTCLALDGHQLLAGGEVDLKNQVTPLDILSKTRVSEDNITESQHMLVAEIMVSDQDDCAPVGCSMYARCISEGEDATCQCLKGFAGDGKLCSDIDECEMGVPVCPPASSKCINTEGGYVCRCSEGYQGDGIHCLDIDECQLGEHSCGENASCTNTEGGYTCMCAGRLSEPGLICPDSTPPPHLREDDHHYSVRNSDSECPLSHDGYCLHDGVCMYIEALDKYACNCVVGYIGERCQYRDLKWWELRHAGHGQQQKVIVVAVCVVVLVMLLLLSLWGAHYYRTQKLLSKNPKNPYEESSRDVRSRRPADTEDGMSSCPQPWFVVIKEHQDLKNGGQPVAGEDGQAADGSMQPTSWRQEPQLCGMGTEQGCWIPVSSDKGSCPQVMERSFHMPSYGTQTLEGGVEKPHSLLSANPLWQQRALDPPHQMELTQ
modifications: Pro-epidermal growth factor
- glucose tolerance [1]: neither gastrin nor EGF alone improved glucose tolerance
